Reference: article PMC13199644, “Optimized Quantitative Bacterial Two-Hybrid (qB2H) for Protein–Protein Interaction Assessment” (Computational and Structural Biotechnology Journal, 2026)

System: Spo22p
Assay: qB2H v3 fluorescence, Spo22p vs ECM11
Format: cell-based, Saccharomyces cerevisiae
Conditions: Acella, qB2H v3, cI-Spo22p 786-886, IPTG(200µM) + ATC (200ng/mL)
Description: Precultures of untransformed (for intrinsic fluorescence evaluation) and transformed SB39 cells were diluted (3 μl into 300 μl of fresh medium) in 2-ml microtubes and grown in ThermoMixer C (Eppendorf; 37 °C at 900 rpm) for 2 h. Cultures with an OD600 of approximately 0.5 were then mixed with 100 μl of the same medium containing 4× inducer concentration. […] The induced cultures were grown overnight at 18 °C, diluted (1 μl) in freshly filtered (0.22 μm) phosphate-buffered saline buffer (1 ml per OD unit), and analyzed using guava easyCyte HT (488-nm blue laser). The gating for event analysis was set to minimize background noise (fewer than 100 gated events per 10 μl of sterile phosphate-buffered saline). Ten thousand events were collected per culture, and the MFI was recorded. To allow comparison across independent experiments, SB39 cells cotransformed with VN519 (pBRα-rpoA-ip3_mut3A) and VN550 (pAC-cI_E34P-ASF1A_Term_f1-pOL2-62_L-eGFP-KanR) or VN517 (pBRα-rpoA-ip3) and VN550 were included as internal controls. […]
MFI(x) represents the MFI of a given condition or culture. MFI(low) corresponds to the fluorescence produced by SB39 cells cotransformed with VN519 and VN550, indicating no detectable interaction (Kd > 100,000 nM). […]
Interactions involving distinct protein domains and folding variants were assessed using qB2H systems v1, v2, and v3. […]

B1: ECM11: Q04110 1-302, Saccharomyces cerevisiae (protein, UniProt Q04110 1-302, looked up)
Protein ECM11: MTVIKTEPTTEVTLYSPPSKESLSKDDAHRKKQNNKPPSSINSRSGPNKHKLAAKAPEKKINNTDKQDLSAFLLNPSLIVKPSESKKKENIVAYNDTPGIKTEHTAFQPLTPISKKRALKEKAASEKCDSFDLSRDEKPYIQKKSKTLSSVTEINSSEYKLSLNGENTSSPAKEKSQEPIENPGSYQKTRNYLFEKPDPLDTCLQDYSSMLPSNVAEEDQEYFISVADSTLEEWTNKGQEIIDQQFQLYQEIIKKRIELSYKFKGIISVINDRADALEEQGQQLEGKIKKVKTLANEILNII
B1 was tested, and the “Norm. MFI” value was 7.70%.
